Laboratory results published in EP4725966A1 (SHANGHAI RUOTUO BIOSCIENCES CO., LTD., dated 2024).
Numbering of substitutions follows the chain as printed. Names and notes keep the numbering of the source. Where two headings read alike, the source gives them in different places.

T1: Human HER4-ECD-His (human, UniProt Q15303 26-651)
T1 construct: extracellular domain; not shown: His tag
T1 sequence (looked up): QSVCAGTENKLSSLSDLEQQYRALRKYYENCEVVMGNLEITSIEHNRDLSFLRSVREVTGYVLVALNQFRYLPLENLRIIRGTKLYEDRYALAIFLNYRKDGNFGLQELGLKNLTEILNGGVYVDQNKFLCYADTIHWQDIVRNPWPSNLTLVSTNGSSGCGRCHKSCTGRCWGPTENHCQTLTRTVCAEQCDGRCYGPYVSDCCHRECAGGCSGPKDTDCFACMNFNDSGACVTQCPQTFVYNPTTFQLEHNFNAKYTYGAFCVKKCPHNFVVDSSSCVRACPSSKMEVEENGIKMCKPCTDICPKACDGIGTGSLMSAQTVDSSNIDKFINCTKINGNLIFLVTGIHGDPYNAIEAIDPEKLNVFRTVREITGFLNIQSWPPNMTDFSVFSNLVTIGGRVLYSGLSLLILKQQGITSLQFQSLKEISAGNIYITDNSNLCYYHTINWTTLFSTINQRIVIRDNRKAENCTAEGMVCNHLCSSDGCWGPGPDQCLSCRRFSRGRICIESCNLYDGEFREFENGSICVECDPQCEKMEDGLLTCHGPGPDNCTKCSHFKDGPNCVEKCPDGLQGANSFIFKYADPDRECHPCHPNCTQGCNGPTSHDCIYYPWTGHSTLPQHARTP

B1: cHE4-G1W (antibody, human IgG1, V domains shown)
VH: EVQLVESGGGLVKPGGSLKLSCAASGFTFSSYVMSWVRQTPEKRLEWVATISDGDSSTYYPDNVKGRFTISRDNAKNNLFLQMSHLKSEDTAMYFCARDKGHGYDEGAFVYWGQGTLVTVSA
VL: DIQMTQSPASLSASVEETVTITCRASENIYSYLAWYQQKQGKSPQLLVYNAKTLAEGVPSRFSGSGSGTEFSLKINSLQPEDFGSYYCQNHYGTPYTFGGGTKLEIKQ
notes: also called chimeric HE4 antibody; cHE4-G1W4; not shown: human IgG1 heavy chain constant region, GenBank AXN93653.1; human kappa light chain constant region, GenBank AWK57456.1
B2: hHE4-G1W (antibody, human IgG1, V domains shown)
VH: QVQLVESGGGLVKPGGSLRLSCAASGFTFSSYVMSWVRQAPGKGLEWVATISDGDSSTYYADSVKGRFTISRDNAKNSLYLQMNSLRAEDTAVYYCARDKGHGYDEGAFVYWGQGTLVTVSS
VL: DIQMTQSPSSLSASVGDRVTITCRASENIYSYLAWYQQKPGKAPKLLIYNAKTLAEGVPSRFSGSGSGTDFTLTISSLQPEDFATYYCQNHYGTPYTFGQGTKLEIKR
notes: Humanized from cHE4-G1W; also called humanized HE4 antibody; not shown: human IgG1 heavy chain constant region; human light chain constant region
B3: patritumab (antibody, V domains shown)
VH: QVQLQQWGAGLLKPSETLSLTCAVYGGSFSGYYWSWIRQPPGKGLEWIGEINHSGSTNYNPSLKSRVTISVETSKNQFSLKLSSVTAADTAVYYCARDKWTWYFDLWGRGTLVTVSS
VL: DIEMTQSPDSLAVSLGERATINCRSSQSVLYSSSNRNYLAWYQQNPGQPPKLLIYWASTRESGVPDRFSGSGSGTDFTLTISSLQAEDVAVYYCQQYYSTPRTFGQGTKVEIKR
B4: hHE4-G1W-DXd (antibody, V domains shown)
VH: B2 VH
VL: B2 VL
modifications: maleimide-GGFG-DXd conjugated to cysteines of reduced interchain disulfide bonds; antibody-to-DXd ratio 1:8
notes: not shown: human IgG1 heavy chain constant region; human light chain constant region
B5: cHE1-G1W (antibody, human IgG1, V domains shown)
VH: EVKLQESGPGLVKPSQSLSLTCSVTGYSITSGYYWNWIRQFPGNKLEWMGYISYDGSNNYNPSLKNRISITRDTSKNQFFLNLNSVTTEDTATYYCARVDWDGDAMDYWGQGTSVTVSS
VL: DIVLTQSPASLAVSLGQRATISCRASESVDNYGIRLMHWYQQKSGQPPKLLIHRASNLESGIPARFSGSGSRTDFTLTINPVETDDVATYYCQQSNKDPFTFGSGTKLEIKR
notes: also called chimeric HE1 antibody; not shown: human IgG1 heavy chain constant region, GenBank AXN93653.1; human kappa light chain constant region, GenBank AWK57456.1
B6: cHE2-G1W (antibody, human IgG1, V domains shown)
VH: B5 VH with N82K, V99M
VL: B5 VL with R35S, S44P, H53Y, F100P, S104A, I110L
notes: also called chimeric HE2 antibody; not shown: human IgG1 heavy chain constant region, GenBank AXN93653.1; human kappa light chain constant region, GenBank AWK57456.1
B7: cHE5-G1W (antibody, human IgG1, V domains shown)
VH: B5 VH with K3Q, N82K, R98S, V99Y, W101Y, A105W, M106F, D107A, S114L, S119A
VL: B5 VL with N31H, I34S, R35S, L36F, S44P, H53Y, L58P, F100P, S104G
notes: also called chimeric HE5 antibody; not shown: human IgG1 heavy chain constant region, GenBank AXN93653.1; human kappa light chain constant region, GenBank AWK57456.1
B8: cHE6-G1W (antibody, human IgG1, V domains shown)
VH: EVQLQQSGPDLVKPGTSVKMSCKASGYTFTDYYMHWVRQSHGKSLEWIGYINPNNGDAIYNQKFKGKATLTVNKSSTTAYMALRSLTSEDSAVYFCATYDYGGDFYFDVWGTGTTVTVSS
VL: DIELTQSPALMSASPGEKVTMTCSASSSVSYMYWYQQKPRSSPKPWIYLTSNLASGVPARFSGSGSGTSYSLTISSMEAEDAATYYCQQWSRNPLTFGAGTKLELKR
notes: also called chimeric HE6 antibody; not shown: human IgG1 heavy chain constant region, GenBank AXN93653.1; human kappa light chain constant region, GenBank AWK57456.1
B9: cHE7-G1W (antibody, human IgG1, V domains shown)
VH: B8 VH with N73D
VL: B8 VL
notes: also called chimeric HE7 antibody; not shown: human IgG1 heavy chain constant region, GenBank AXN93653.1; human kappa light chain constant region, GenBank AWK57456.1

What was measured:
human HER3-ECD-His [1] = target: T2, human HER3-ECD-His (human, UniProt P21860 20-643); experiment: Octet (BLI)
T2 construct: extracellular domain; Fusion protein of the extracellular domain of human HER3 and a His tag; also called hHER3-ECD-His; human HER3 extracellular domain protein; not shown: His tag

cynomolgus HER3-ECD-His [2] = target: T3, cynomolgus HER3-ECD-His (cynomolgus monkey, UniProt G7PIG5 20-643); experiment: Octet (BLI)
T3 construct: extracellular domain; Bought protein (Sino Biological); also called Cyno HER3-ECD-His; Cyno HER3; not shown: His tag

human HER3-ECD-His [3] = target: T2, human HER3-ECD-His; experiment: Octet (BLI); remark: listed apart in the source
cynomolgus HER3-ECD-His [4] = target: T3, cynomolgus HER3-ECD-His; experiment: Octet (BLI); remark: listed apart in the source
[5] = target: T4, cynomolgus HER3 on CHO cells (cynomolgus monkey, UniProt G7PIG5 20-1342); experiment: FACS on CHO cells overexpressing cynomolgus HER3
T4 construct: whole, on cells; also called CHO cells overexpressing cynomolgus HER3; CHO cells overexpressing cynomolgus monkey HER3

human HER3-ECD-His [6] = target: T2, human HER3-ECD-His; experiment: Octet (BLI); remark: listed apart in the source
cynomolgus HER3-ECD-His [7] = target: T3, cynomolgus HER3-ECD-His; experiment: Octet (BLI); remark: listed apart in the source
Human EGFR-ECD-His = target: T5, Human EGFR-ECD-His (human, UniProt P00533 25-645); experiment: ELISA on coated Human EGFR-ECD-His, antibody 25 nM to 0.011 nM
T5 construct: extracellular domain; not shown: His tag

Human HER2-ECD-His = target: T6, Human HER2-ECD-His (human, UniProt P04626 23-652); experiment: ELISA on coated Human HER2-ECD-His, antibody 25 nM to 0.011 nM
T6 construct: extracellular domain; not shown: His tag

Human HER4-ECD-His = target: T1, Human HER4-ECD-His; experiment: ELISA on coated Human HER4-ECD-His, antibody 25 nM to 0.011 nM
human HER3 on cells = target: T7, human HER3 on cells (human, UniProt P21860 20-1342); experiment: fluorescence imaging of HER3-overexpressing A375 cells, 100 nM, 0 hour
T7 construct: whole, on cells; also called Human HER3-CHO; CHO cells overexpressing human HER3

T3 sequence (G7PIG5 entry or part of it): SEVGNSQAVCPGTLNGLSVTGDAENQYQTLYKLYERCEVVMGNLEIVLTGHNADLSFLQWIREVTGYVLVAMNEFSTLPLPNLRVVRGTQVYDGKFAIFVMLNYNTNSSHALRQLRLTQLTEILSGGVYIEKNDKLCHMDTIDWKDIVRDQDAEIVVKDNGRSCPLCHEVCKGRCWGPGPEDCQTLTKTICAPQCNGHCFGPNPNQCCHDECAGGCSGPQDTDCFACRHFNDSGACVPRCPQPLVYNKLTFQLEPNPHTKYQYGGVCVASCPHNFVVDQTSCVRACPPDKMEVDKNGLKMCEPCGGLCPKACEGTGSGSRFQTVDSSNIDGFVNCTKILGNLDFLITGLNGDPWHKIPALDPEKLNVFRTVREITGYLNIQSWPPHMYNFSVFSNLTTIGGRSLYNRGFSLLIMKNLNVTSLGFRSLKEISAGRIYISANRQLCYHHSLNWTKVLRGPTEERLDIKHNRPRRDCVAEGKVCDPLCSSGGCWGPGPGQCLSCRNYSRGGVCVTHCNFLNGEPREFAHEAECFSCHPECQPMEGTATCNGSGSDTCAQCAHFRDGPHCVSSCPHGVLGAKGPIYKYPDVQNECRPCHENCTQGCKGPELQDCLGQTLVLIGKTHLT
T4 sequence (G7PIG5 entry or part of it): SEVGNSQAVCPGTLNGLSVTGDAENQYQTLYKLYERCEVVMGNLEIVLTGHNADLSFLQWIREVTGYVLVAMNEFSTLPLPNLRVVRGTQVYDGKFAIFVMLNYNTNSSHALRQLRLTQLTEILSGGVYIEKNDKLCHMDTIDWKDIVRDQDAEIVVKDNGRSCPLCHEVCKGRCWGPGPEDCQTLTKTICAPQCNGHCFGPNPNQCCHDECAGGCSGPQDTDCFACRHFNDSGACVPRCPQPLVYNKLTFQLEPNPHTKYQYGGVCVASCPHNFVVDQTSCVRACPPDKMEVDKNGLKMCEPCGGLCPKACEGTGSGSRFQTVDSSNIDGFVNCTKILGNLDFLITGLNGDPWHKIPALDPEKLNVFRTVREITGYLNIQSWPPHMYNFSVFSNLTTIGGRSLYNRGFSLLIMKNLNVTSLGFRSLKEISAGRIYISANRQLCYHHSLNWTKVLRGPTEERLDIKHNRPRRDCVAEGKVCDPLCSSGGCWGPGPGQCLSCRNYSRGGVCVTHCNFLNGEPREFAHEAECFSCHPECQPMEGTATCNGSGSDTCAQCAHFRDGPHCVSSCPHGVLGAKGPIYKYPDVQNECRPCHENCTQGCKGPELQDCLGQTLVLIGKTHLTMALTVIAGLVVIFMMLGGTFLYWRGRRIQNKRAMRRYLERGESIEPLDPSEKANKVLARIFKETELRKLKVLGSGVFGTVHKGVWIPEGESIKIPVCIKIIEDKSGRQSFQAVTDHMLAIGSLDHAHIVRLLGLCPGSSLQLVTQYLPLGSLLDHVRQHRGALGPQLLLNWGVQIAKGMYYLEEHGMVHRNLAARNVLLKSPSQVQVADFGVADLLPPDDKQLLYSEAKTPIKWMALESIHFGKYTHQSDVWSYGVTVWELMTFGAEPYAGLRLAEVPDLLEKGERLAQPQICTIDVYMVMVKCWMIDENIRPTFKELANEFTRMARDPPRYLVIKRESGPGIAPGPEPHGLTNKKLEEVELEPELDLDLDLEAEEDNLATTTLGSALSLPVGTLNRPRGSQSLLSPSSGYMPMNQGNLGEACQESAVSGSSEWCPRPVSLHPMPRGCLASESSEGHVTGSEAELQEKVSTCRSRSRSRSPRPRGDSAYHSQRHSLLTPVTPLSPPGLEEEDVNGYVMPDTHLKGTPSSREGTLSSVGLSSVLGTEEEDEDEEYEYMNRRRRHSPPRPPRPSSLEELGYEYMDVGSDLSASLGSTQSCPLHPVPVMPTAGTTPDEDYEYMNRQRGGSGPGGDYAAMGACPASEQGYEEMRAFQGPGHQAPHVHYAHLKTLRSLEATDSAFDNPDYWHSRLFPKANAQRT

Kd (human HER3-ECD-His [1]) [nM] | koff (human HER3-ECD-His [1]) [s⁻¹] | kon (human HER3-ECD-His [1]) [M⁻¹ s⁻¹] | Kd (cynomolgus HER3-ECD-His [2]) [nM] | koff (cynomolgus HER3-ECD-His [2]) [s⁻¹] | kon (cynomolgus HER3-ECD-His [2]) [M⁻¹ s⁻¹] | Kd (human HER3-ECD-His [3]) [nM] | koff (human HER3-ECD-His [3]) [s⁻¹] | kon (human HER3-ECD-His [3]) [M⁻¹ s⁻¹] | Kd (cynomolgus HER3-ECD-His [4]) [nM] | koff (cynomolgus HER3-ECD-His [4]) [s⁻¹] | kon (cynomolgus HER3-ECD-His [4]) [M⁻¹ s⁻¹] | EC50 fold against patritumab [5] [fold] | KD fold lower than patritumab (human HER3-ECD-His [6]) [fold] | KD fold lower than patritumab (cynomolgus HER3-ECD-His [7]) [fold] | binding result (Human EGFR-ECD-His) | binding result (Human HER2-ECD-His) | binding result (Human HER4-ECD-His) | binding result (human HER3 on cells) | Binder
0.409 | 0.000234 | 573000 | 0.31 | 0.000116 | 374000 | 0.233 | 0.000112 | 482000 | 0.227 | 9.63e-05 | 425000 | 2 | – | – | – | – | – | – | B1
– | – | – | – | – | – | 0.199 | 9.84e-05 | 495000 | 0.208 | 9.11e-05 | 439000 | – | ~10 | ~10 | no binding (tested: 25 nM) | no binding (tested: 25 nM) | no binding (tested: 25 nM) | – | B2
0.869 | 0.000224 | 258000 | 2.34 | 0.000306 | 131000 | 1.33 | 0.000296 | 222000 | 1.92 | 0.000371 | 194000 | – | – | – | – | – | – | – | B3
– | – | – | – | – | – | – | – | – | – | – | – | – | – | – | – | – | – | binds | B4
4.88 | 0.00356 | 728000 | 4.01 | 0.0017 | 423000 | – | – | – | – | – | – | – | – | – | – | – | – | – | B5
3.57 | 0.00308 | 861000 | 3.25 | 0.00165 | 507000 | – | – | – | – | – | – | – | – | – | – | – | – | – | B6
3.56 | 0.00253 | 710000 | 3.58 | 0.00154 | 429000 | – | – | – | – | – | – | – | – | – | – | – | – | – | B7
0.00114 | 5.11e-07 | 450000 | 1.25 | 0.000706 | 565000 | – | – | – | – | – | – | – | – | – | – | – | – | – | B8
0.00131 | 5.57e-07 | 425000 | 1.36 | 0.000912 | 672000 | – | – | – | – | – | – | – | – | – | – | – | – | – | B9
